We go through eight molecules from patent US12611443B2, “Methods and compositions related to therapeutic peptides for cancer therapy” (THE UNIVERSITY OF CHICAGO, priority 2018, dated 2026).

Entries after “also recorded” stand apart in the source; their conditions may differ.

The subject of experiment [1] is human/murine cancer cells. The experiment is described as follows: In vitro cell viability of cancer cells (calcein-AM, CASP3, ANXA5). Particulars: for effect of ELANE inhibitor treatment of ELANE or PMN media on cancer cell killing: PMSF 1 mM or A1AT 42 nM. Type of experiment: cell-based. The text has this: Cell lines. The ovarian cancer cell lines—CAOV3, OVCAR3, OVCAR4, OVCAR5, A2780, A2780/CP70, HeyA8, TykNu, SKOV3, ID8, and ID8p53-/- were a gift from Dr. Ernst Lengyel, University of Chicago. The breast cancer cell lines—MDA-MB-231, MDA-MB-231.BM1, MCF-7, M6C, E0771, and E0771.LMB were a gift from Dr. Marsha Rosner, University of Chicago. The colon carcinoma cell line RKO, glioblastoma cancer cell line T98G, osteosarcoma cell lines U-2OS and Saos-2, and the hepatocellular carcinoma cell line HepG2 were a gift from Dr. Kay McLeod, University of Chicago. The lung cancer cell line NCI-H552 was a gift from Dr. Stephanie Huang, University of Chicago, and A549 and LLC1 cells were purchased from ATTC. The melanoma cell lines—B16F10, Mel888, Mel1106, and SK-MEL-28 cells were a gift from Dr. Thomas Gajewski, University of Chicago. The pancreatic cancer cell line PANC1 was a gift from Dr. Yamuna Krishnan, University of Chicago. The leukemia cell line K562 was a gift from Dr. Amittha Wickrema, University of Chicago.
The prostate cancer cell lines—CWR22Rv1, LAPC4, and LNCaP were a gift from Dr. Donald Vander Griend, University of Chicago. The neuroblastoma cell lines—SK-N-BE(2) and NBL-WN cells were a gift from Dr. Lucy Godley, University of Chicago.
Neutrophil media collections. Freshly isolated human or murine neutrophils were plated in serum-free DMEM for 24 h. Conditioned media was collected, spun at 500×g for 5 min, and media protein levels were determined with a Bradford assay (Biorad).
PMN media manipulations. For boiling, PMN media was boiled at 95° C. for 5 min and spun at 15,000×g for 10 min to remove precipitated proteins. For dialysis, PMN media was placed into a Slide-a-Lyzer™ cassette (3.5 kDa cutoff, ThermoFisher Scientific) and dialyzed against 2×4L of PBS at 4° C. for 4 h. For PMSF-inactivation, PMN media was treated with PMSF (1 mM, Sigma) or A1AT (42 nM, Athens Research & Technology) and incubated at room temperature for up to 2 h. Residual PMSF was eliminated with a PD-10 desalting column (GE Healthcare Life). Inhibition of ELANE catalytic activity was confirmed using a chromogenic substrate activity assay (see below). For serum-spiking experiments, human, mouse, or fetal bovine serum (1% or 10%) was added to PMN media prior to or after exposing cancer cells. For immune-depletion studies, ELANE or ECP were immunoprecipitated using anti-ELANE (N2C3, GeneTx) or anti-ECP (MB S2535165, MyBioSource) coupled to Pierce™ Protein A/G Magnetic Beads (ThermoFisher Scientific).
(§1) In vitro cell viability assays. […] Luminescence was measured using a Victor X3 luminometer (PerkinElmer).

The test system of experiment [2] is human and murine cancer cells. The experiment is described as follows: CD95 overexpression, ELANE-mediated apoptosis (ANXA5). It counts as cell-based. Conditions: ELANE 40 nM, ANXA5 at 30 min. Here is the method: FIGS. 2A-2D Overexpressing CD95 proteins accelerates cancer cell killing by ELANE. Polycistronic adenoviral vectors were prepared to express the human and mouse CD95 sequences followed by the Encephalomyocarditis virus (EMCV) internal ribosome entry site and dTomato sequence under the control of the cytomegalovirus (CMV) promoter. Human and murine cancer cells or non-cancer cells were transduced to over-express full-length CD95, N-terminal CD95 (human: aa 1-209; mouse: aa 1-204), or C-terminal CD95 (human: aa 212-335; mouse: aa 204-327). (A): Transduction efficiency quantified by dTomato (Left). CD95 levels in dTomato− and dTomato+ cells quantified by geometric mean (MFI) (Middle). ANXA5 levels in dTomato− and dTomato+ cells 30 min after treatment with ELANE (40 nM) (Right). Representative data for A549 cells are shown. (B-C): Quantification of transduction efficiency (B) and relative CD95 overexpression (C) for cancer cells and non-cancer cells. (D): Quantification of ANXA5 levels following ELANE treatment (40 nM, 30 min) for mouse cancer cell lines (E0771, B16F10). *, p<0.05 Student's t-test.
as §1
(§2) CD95 overexpression studies. Polycistronic adenoviral vectors were prepared to express the human and mouse CD95 sequences followed by the Encephalomyocarditis virus (EMCV) internal ribosome entry site and dTomato sequence under the control of the cytomegalovirus (CMV) promoter (VectorBuilder). Human and murine cancer cells or normal or non-cancer cells were transduced to over-express full-length CD95, N-terminal CD95 (human: aa 1-209; mouse: aa 1-204), C-terminal CD95 (human: aa 212-335; mouse: aa 204-327), or C-terminal CD95 that mimicked ELANE cleavage at site 1 (human: aa 221-335), site 2 (human: aa 212-331), or both sites (aa 221-331). Cancer cells or normal or non-cancer cells were transduced with adenoviruses at an MOI of 50-250 depending on cell type, and expression of dTomato and CD95 (human: 558814; mouse, mouse: 565130, BD Biosciences) were confirmed by flow cytometry. A vector encoding GFP (Vector Builders) was used as a control.

The subject of a further experiment is cancer cells. The experiment is described as follows: CD95 protein overexpression in cancer cells, viability in absence of ELANE (calcein-AM). Type of experiment: cell-based, human. Particulars: transient overexpression. As for the experimental part: FIGS. 1A-1K. ELANE cleaves CD95 to selectively kill cancer cells. (A): Heatmap summary of ELANE's effects on survival, stress, and apoptosis pathways in cancer cells and healthy cells. (B-C): Cancer cells were treated with ELANE (100 nM) and CD95 cleavage was assessed by western blotting using anti-N-terminal (B) or anti-C-terminal antibodies (C). *, lower molecular weight CD95 fragment. (D): Cancer cells or non-cancer cells were transduced to overexpress CD95 proteins, and effects on ELANE-mediated apoptosis were quantified by ANXAS at 30 min. n=2/group. See FIG. 1I for transduction and CD95 over-expression. (E): Cleavage of recombinant human CD95 N-terminal (aa 1-173) or C-terminal (aa 212-335) proteins by ELANE was assessed by SDS-PAGE and Coomassie blue staining. (F): Bands from (E) were digested with trypsin and analyzed by mass spectrometry to identify putative ELANE cleavage sites (i.e., peptides with non-tryptic ends). Major non-tryptic peptides were quantified by ion chromatograms. (G): Schematic of ELANE cleavage sites in CD95. […] (H): Cleavage of recombinant peptides corresponding to aa 214-231 and aa 317-335 in CD95 by ELANE was monitored by mass spectrometry. (I): Cancer cells or non-cancer cells were treated with fluorescein-labeled ELANE for 10 min and uptake was visualized by immunofluorescence. (J): ELANE catalytic activity in cancer cell lysates following exposure to ELANE for 30 mins in the presence and absence of Dynasore (60 μM endocytosis inhibitor). Effect of Dynasore on cancer cell killing capability of ELANE (measured by calcein-AM). n=6/group. (K): Cancer cells or non-cancer cells were transduced to overexpress various CD95 proteins, and cell viability in the absence of ELANE was determined by calcein-AM. n=10/group. *, p<0.05 Student's t-test.
as §1, §2

As for `O=S(=O)(F)Cc1ccccc1` [PMSF], the “effect of ELANE inhibitor treatment of ELANE or PMN media on cancer cell killing” value in experiment [1] was “eliminated the ability of PMN media to kill cancer cells in vitro and in vivo; also recorded: protects cancer cells from apoptosis”.
Consider “A1AT: alpha-1-anti-trypsin, irreversible non-competitive ELANE inhibitor”, for which the “effect of ELANE inhibitor treatment of ELANE or PMN media on cancer cell killing” value is “eliminated the ability of PMN media to kill cancer cells in vitro and in vivo” in experiment [1]; “protects cancer cells from apoptosis” in experiment [1] (listed as alpha-1-antitrypsin).

B1: mouse CD95 (mCD95): mouse CD95 overexpressed in cancer cells (protein, UniProt P25446 22-327, looked up)
Tumor necrosis factor …: QGTNSISESLKLRRRVRETDKNCSEGLYQGGPFCCQPCQPGKKKVEDCKMNGGTPTCAPCTEGKEYMDKNHYADKCRRCTLCDEEHGLEVETNCTLTQNTKCKCKPDFYCDSPGCEHCVRCASCEHGTLEPCTATSNTNCRKQSPRNRLWLLTILVLLIPLVFIYRKYRKRKCWKRRQDDPESRTSSRETIPMNASNLSLSKYIPRIAEDMTIQEAKKFARENNIKEGKIDEIMHDSIQDTAEQKVQLLLCWYQSHGKSDAYQDLIKGLKKAECRRTLDKFQDMVQKDLGKSTPDTGNENEGQCLE
On to B1, for which the “effect of overexpression on ELANE-mediated killing” value (shortened to “effect of overexpression”) in experiment [2] is listed as “did not protect against ELANE-mediated killing, but rather accelerated it”.

B2: Cl: hCD95 C-terminal peptide aa 221-335, mimics ELANE cleavage at site 1 (protein)
chain: AINLSDVDLSKYITTIAGVMTLSQVKGFVRKNGVNEAKIDEIKNDNVQDTAEQKVQLLRNWHQLHGKKEAYDTLIKDLKKANLCTLAEKIQTIILKDITSDSENSNFRNEIQSLV
For B2, the entries for the “cancer cell death/toxicity on expression in the absence of ELANE” value (from here on “cancer cell death/toxicity on expression”) in the experiment on cancer cells and with cancer cells (listed as aa. 221-335 of SEQ ID NO:1) were “toxic” and “induced cancer cell death in the absence of ELANE”, respectively.

B3: murine ELANE: recombinant mouse ELANE activated with CTSC (protein, UniProt Q3UP87 27-265, looked up)
Neutrophil elastase: SEIVGGRPARPHAWPFMASLQRRGGHFCGATLIARNFVMSAAHCVNGLNFRSVQVVLGAHDLRRQERTRQTFSVQRIFENGFDPSQLLNDIVIIQLNGSATINANVQVAQLPAQGQGVGDRTPCLAMGWGRLGTNRPSPSVLQELNVTVVTNMCRRRVNVCTLVPRRQAGICFGDSGGPLVCNNLVQGIDSFIRGGCGSGLYPDAFAPVAEFADWINSIIRSHNDHLLTHPKDREGRTN
Regarding B3, the “cancer cell killing by murine ELANE” value in experiment [1] is reported as “kills cancer cells”.

B4: N-terminal domain peptide of CD95: N-terminal domain of human CD95, aa 1-209 (protein, listed as Homo sapiens)
chain: MLGIWTLLPLVLTSVARLSSKSVNAQVTDINSKGLELRKTVTTVETQNLEGLHHDGQFCHKPCPPGERKARDCTVNGDEPDCVPCQEGKEYTDKAHFSSKCRRCRLCDEGHGLEVEINCTRTQNTKCRCKPNFFCNSTVCEHCDPCTKCEHGIIKECTLTSNTKCKEEGSRSNLGWLCLLLLPIPLIVWVKRKEVQKTCRKHRKENQGS
Take B4: the “effect of overexpression” value in experiment [2] is listed as “had no effect”. In addition, the “cancer cell death/toxicity on expression” value in the experiment with cancer cells is “not toxic to cancer cells”.

B5: C2: hCD95 C-terminal peptide aa 212-331, mimics ELANE cleavage at site 2 (protein)
chain: SPTLNPETVAINLSDVDLSKYITTIAGVMTLSQVKGFVRKNGVNEAKIDEIKNDNVQDTAEQKVQLLRNWHQLHGKKEAYDTLIKDLKKANLCTLAEKIQTIILKDITSDSENSNFRNEI
For B5, the “cancer cell death/toxicity on expression” value with cancer cells is reported as “toxic”; in the experiment on cancer cells (listed as aa. 212-331 of SEQ ID NO:1) it was “induced cancer cell death in the absence of ELANE”.

B6: full-length CD95: full length human CD95 (aa 1-335), isoform 1 (protein, listed as Homo sapiens)
chain: MLGIWTLLPLVLTSVARLSSKSVNAQVTDINSKGLELRKTVTTVETQNLEGLHHDGQFCHKPCPPGERKARDCTVNGDEPDCVPCQEGKEYTDKAHFSSKCRRCRLCDEGHGLEVEINCTRTQNTKCRCKPNFFCNSTVCEHCDPCTKCEHGIIKECTLTSNTKCKEEGSRSNLGWLCLLLLPIPLIVWVKRKEVQKTCRKHRKENQGSHESPTLNPETVAINLSDVDLSKYITTIAGVMTLSQVKGFVRKNGVNEAKIDEIKNDNVQDTAEQKVQLLRNWHQLHGKKEAYDTLIKDLKKANLCTLAEKIQTIILKDITSDSENSNFRNEIQSLV
In the case of B6, the “effect of overexpression” value is given as “accelerated ELANE-mediated killing in human cancer cells” in experiment [2] and “did not protect against ELANE-mediated killing, but rather accelerated it” in experiment [2] (listed as human CD95 (hCD95)). Further, the “cancer cell death/toxicity on expression” value in the experiment on cancer cells is given as “not toxic to cancer cells”.
